Data from PMC4855144.

What was measured:
[1] = target: GST-Cdc42 constitutively active (CA/Q61L), preloaded with GTPγS (UniProt P60953); test: GST pull-down, western blot quantified with ImageJ; conditions: GST-Cdc42 CA on Glutathione-Sepharose beads pre-loaded with GTPγS; lysates from HEK293T cells; input set at 100%; 3 independent experiments; parent: est. 19; read off a plot
[2] = target: GST-Cdc42 dominant negative (DN/T17N), preloaded with GDP (UniProt P60953); test: GST pull-down, western blot quantified with ImageJ; conditions: GST-Cdc42 DN on Glutathione-Sepharose beads pre-loaded with GDP; lysates from HEK293T cells; input set at 100%; 3 independent experiments; parent: est. 60; read off a plot
[3] = target: GST-Cdc42 constitutively active (CA/Q61L), preloaded with GTPγS (UniProt P60953); test: pull-down; Glutathione-Sepharose beads coated with GST alone or GST-GTPase fusions pre-loaded with GDP (DN) or GTPγS (CA), incubated with lysates of HEK293T cells expressing GFP-CRN7 WT or CRIB mutants; blot with GFP mAb K3-184-2 or anti-N-WASP; ImageJ quantification, input set at 100%

Chain of GST-Cdc42 constitutively active (CA/Q61L), preloaded with GTPγS (P60953 whole entry Q61L, the tested form may be a part): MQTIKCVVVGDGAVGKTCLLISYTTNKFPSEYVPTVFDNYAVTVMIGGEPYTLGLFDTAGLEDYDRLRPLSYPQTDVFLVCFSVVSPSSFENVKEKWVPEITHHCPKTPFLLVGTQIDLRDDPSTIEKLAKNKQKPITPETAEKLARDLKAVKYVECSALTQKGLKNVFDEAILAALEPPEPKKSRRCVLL
Chain of GFP-CRN7 WT (human Coronin7, full length, GFP on its N-terminus) (from UniProt P57737) CT-CRIB L>A; T>A; P>A (… > …); residue numbers not printed (P57737 whole entry, change not shown): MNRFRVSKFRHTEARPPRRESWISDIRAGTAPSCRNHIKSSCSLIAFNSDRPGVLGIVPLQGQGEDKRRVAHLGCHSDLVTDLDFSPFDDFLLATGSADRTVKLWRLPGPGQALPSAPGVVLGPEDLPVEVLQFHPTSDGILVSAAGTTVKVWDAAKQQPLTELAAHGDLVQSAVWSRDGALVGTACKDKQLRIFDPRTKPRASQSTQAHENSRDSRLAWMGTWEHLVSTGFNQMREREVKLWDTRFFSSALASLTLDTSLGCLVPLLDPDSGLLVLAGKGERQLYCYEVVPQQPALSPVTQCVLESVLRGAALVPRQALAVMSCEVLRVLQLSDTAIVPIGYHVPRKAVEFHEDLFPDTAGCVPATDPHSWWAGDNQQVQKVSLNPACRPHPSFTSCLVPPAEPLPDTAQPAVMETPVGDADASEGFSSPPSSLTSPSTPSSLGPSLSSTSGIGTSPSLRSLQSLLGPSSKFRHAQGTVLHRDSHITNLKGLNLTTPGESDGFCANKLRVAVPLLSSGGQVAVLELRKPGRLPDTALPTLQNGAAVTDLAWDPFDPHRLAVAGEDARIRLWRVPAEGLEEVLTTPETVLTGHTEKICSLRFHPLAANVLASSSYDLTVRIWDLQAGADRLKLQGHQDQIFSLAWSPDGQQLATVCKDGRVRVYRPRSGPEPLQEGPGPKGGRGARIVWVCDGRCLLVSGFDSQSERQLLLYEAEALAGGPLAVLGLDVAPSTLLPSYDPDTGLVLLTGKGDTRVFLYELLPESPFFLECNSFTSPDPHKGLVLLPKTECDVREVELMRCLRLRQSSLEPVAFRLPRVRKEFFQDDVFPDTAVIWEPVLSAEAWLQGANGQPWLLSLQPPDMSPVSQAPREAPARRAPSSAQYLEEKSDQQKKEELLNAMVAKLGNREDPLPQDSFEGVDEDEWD
Chain of GFP-CRN7 WT (human Coronin7, full length, GFP on its N-terminus) (from UniProt P57737) NT-CRIB S>A; P>A (… > …); residue numbers not printed (P57737 whole entry, change not shown): as above
Chain of GST-Cdc42 dominant negative (DN/T17N), preloaded with GDP (P60953 whole entry T17N, the tested form may be a part): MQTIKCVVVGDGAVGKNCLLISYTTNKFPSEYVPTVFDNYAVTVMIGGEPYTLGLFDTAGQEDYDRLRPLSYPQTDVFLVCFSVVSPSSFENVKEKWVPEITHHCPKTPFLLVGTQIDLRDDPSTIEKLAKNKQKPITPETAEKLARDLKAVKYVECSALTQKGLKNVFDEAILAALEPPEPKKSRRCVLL

Row | response [1] | response [2] | percent of input bound [3] | Substance
1 | 41 % of input | 57 % of input | – | GFP-CRN7 WT (human Coronin7, full length, GFP on its N-terminus) (from UniProt P57737) CT-CRIB L>A; T>A; P>A (… > …); residue numbers not printed
2 | – | – | 30 % of input | GFP-CRN7 WT (human Coronin7, full length, GFP on its N-terminus) (from UniProt P57737 1-925) (natural protein)
3 | 32 % of input | 67 % of input | – | GFP-CRN7 WT (human Coronin7, full length, GFP on its N-terminus) (from UniProt P57737) NT-CRIB S>A; P>A (… > …); residue numbers not printed
